Results taken from US20090148464A1.

Biological target: His-tagged recombinant MIF (macrophage migration inhibitory factor), expressed in Escherichia coli from pQE30
Assay: SPR, BIAcore 2000, His-tagged MIF on Sensor Chip NTA, TRX as analyte, 1:1 binding with drifting baseline model

His-tagged recombinant MIF (macrophage migration inhibitory factor), expressed in Escherichia coli from pQE30, sequence (P14174 2-115): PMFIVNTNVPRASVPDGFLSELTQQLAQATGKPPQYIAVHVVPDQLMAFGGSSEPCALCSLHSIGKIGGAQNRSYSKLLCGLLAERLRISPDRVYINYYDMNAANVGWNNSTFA

## Recombinant TRX (Ajinomoto Co., Inc.)
  Kd: 9.96 nM
  kon: 120 M⁻¹ s⁻¹
